Data taken from paper doi:10.1101/2021.03.03.433707 (bioRxiv, 2021).

Target: T1, MukB, full length, wild type (E. coli, UniProt P22523 1-1486)
T1 sequence (looked up): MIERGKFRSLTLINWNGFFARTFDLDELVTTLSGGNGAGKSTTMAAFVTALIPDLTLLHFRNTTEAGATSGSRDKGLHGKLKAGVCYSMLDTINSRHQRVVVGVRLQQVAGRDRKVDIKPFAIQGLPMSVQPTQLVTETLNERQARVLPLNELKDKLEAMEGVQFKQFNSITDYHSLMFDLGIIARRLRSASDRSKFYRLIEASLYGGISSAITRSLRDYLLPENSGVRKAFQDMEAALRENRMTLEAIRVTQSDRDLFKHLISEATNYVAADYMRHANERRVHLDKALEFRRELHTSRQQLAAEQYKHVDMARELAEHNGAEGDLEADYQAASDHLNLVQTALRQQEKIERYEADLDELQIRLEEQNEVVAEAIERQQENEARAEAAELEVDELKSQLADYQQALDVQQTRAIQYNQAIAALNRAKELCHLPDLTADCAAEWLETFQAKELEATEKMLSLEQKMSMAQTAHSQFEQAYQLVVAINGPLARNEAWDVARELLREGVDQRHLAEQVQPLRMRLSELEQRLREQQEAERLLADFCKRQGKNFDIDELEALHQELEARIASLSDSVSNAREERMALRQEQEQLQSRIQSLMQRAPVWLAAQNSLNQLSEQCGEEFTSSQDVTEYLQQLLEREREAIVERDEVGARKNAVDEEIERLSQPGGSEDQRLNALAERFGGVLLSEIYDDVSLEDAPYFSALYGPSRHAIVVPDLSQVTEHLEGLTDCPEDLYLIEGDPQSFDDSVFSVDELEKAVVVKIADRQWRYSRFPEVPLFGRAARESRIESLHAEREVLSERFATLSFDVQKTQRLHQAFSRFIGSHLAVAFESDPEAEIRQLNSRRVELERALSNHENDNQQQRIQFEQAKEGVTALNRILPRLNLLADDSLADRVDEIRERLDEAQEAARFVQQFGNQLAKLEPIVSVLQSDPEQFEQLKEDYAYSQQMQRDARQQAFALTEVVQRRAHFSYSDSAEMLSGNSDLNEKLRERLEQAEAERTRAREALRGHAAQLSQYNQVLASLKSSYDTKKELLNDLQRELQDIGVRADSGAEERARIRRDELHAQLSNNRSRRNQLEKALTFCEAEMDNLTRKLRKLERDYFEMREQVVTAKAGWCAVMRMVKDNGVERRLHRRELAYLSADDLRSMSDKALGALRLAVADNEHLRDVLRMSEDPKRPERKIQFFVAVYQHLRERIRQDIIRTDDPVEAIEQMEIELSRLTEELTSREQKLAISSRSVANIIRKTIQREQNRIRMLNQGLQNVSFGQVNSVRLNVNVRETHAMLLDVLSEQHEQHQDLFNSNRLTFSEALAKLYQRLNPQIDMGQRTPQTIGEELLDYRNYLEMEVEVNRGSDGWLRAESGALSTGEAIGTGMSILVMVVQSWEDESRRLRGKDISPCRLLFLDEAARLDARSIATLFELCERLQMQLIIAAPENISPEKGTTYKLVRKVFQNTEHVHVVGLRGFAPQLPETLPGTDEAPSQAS
Assay: fluorescence correlation spectroscopy

fold decrease in MatP-Cy3B binding to MukB at a 10-fold excess of competitor: 3 fold
B1: ParC, full length (enzyme, E. coli, UniProt P0AFI2 1-752, looked up)
chain: MSDMAERLALHEFTENAYLNYSMYVIMDRALPFIGDGLKPVQRRIVYAMSELGLNASAKFKKSARTVGDVLGKYHPHGDSACYEAMVLMAQPFSYRYPLVDGQGNWGAPDDPKSFAAMRYTESRLSKYSELLLSELGQGTADWVPNFDGTLQEPKMLPARLPNILLNGTTGIAVGMATDIPPHNLREVAQAAIALIDQPKTTLDQLLDIVQGPDYPTEAEIITSRAEIRKIYENGRGSVRMRAVWKKEDGAVVISALPHQVSGARVLEQIAAQMRNKKLPMVDDLRDESDHENPTRLVIVPRSNRVDMDQVMNHLFATTDLEKSYRINLNMIGLDGRPAVKNLLEILSEWLVFRRDTVRRRLNYRLEKVLKRLHILEGLLVAFLNIDEVIEIIRNEDEPKPALMSRFGLTETQAEAILELKLRHLAKLEEMKIRGEQSELEKERDQLQGILASERKMNNLLKKELQADAQAYGDDRRSPLQEREEAKAMSEHDMLPSEPVTIVLSQMGWVRSAKGHDIDAPGLNYKAGDSFKAAVKGKSNQPVVFVDSTGRSYAIDPITLPSARGQGEPLTGKLTLPPGATVDHMLMESDDQKLLMASDAGYGFVCTFNDLVARNRAGKALITLPENAHVMPPVVIEDASDMLLAITQAGRMLMFPVSDLPQLSKGKGNKIINIPSAEAARGEDGLAQLYVLPPQSTLTIHVGKRKIKLRPEELQKVTGERGRRGTLMRGLQRIDRVEIDSPRRASSGDSEE
